The assay has as its target Artemia salina 40S ribosomal subunit (Artemia salina). Kind of assay: iRIA (in vitro Ribosomes Interaction Assay, microwell solid-phase binding); 40S immobilised, labeled 60S displaced by 5-fold unlabeled 60S; room temperature, 10 minutes.

“Artemia salina 60S ribosomal subunit (mature) (complex)” came in with a percent displacement of labeled 60S by 5-fold unlabeled 60S of 50%.

The values are drawn from publication PMC4613909.
